This note sets out measurements from paper PMC8331134, “Increased expression of ANAC017 primes for accelerated senescence”.

In data set [1] the target is T1, ANAC017 (lacking C-terminal transmembrane domain) (Arabidopsis thaliana, UniProt Q9XIC5 1-525).
T1 sequence: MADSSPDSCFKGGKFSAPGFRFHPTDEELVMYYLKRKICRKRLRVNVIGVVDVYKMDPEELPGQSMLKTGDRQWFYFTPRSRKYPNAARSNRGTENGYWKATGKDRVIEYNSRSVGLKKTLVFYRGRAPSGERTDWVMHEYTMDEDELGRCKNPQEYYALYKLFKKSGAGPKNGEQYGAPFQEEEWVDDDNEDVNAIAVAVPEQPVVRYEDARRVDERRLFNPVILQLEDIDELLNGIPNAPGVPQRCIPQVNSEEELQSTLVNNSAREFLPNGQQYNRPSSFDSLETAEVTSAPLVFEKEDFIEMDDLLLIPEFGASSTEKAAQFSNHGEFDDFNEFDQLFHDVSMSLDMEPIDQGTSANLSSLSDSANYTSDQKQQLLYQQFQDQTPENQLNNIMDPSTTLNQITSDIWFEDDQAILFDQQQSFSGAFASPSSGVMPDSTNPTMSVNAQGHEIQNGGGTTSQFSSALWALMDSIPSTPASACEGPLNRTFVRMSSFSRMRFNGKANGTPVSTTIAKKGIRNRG
Nature of the data set: EMSA; clear shift, less than MDM1; Binding reactions as in Ng et al. 2013 (buffer, pH, temperature not given); 12% acrylamide 0.5x TBE gels. The conditions noted are these: protein: recombinant; tags: GST (pDEST15); chain copies: 2; label: 32P 5' end (T4 PNK). (A gel shift assay detects complexes by their altered migration in electrophoresis.)

The target in data set [2] is T1, ANAC017 (lacking C-terminal …). The data set can be described thus: EMSA; stronger than MDM2; Binding reactions as in Ng et al. 2013 (buffer, pH, temperature not given); 12% acrylamide 0.5x TBE gels. To be noted: protein: recombinant; tags: GST (pDEST15); chain copies: 2; label: 32P 5' end (T4 PNK).

B1: ANAC016 intron 1 MDM2 probe (dsDNA)
DNA 1: GATTTGTTGAGTATATGACAAGGAAACGTCTTTATTCACT
DNA 2: AGTGAATAAAGACGTTTCCTTGTCATATACTCAACAAATC
For B1, the binding result in data set [1] was “binds”.

B2: ANAC016 intron 1 MDM1 probe (dsDNA)
DNA 1: GATGTAGTTGAGTATATGACAAGGAAAAGTTTTGGTTGTT
DNA 2: AACAACCAAAACTTTTCCTTGTCATATACTCAACTACATC
B2: the binding result in data set [2] is given as “binds”.
